Test results from the Immune Epitope Database (IEDB).
pKd: −log10 of the molar value. Values belong to the sequence of their own block, whether it stands above or below them.

Assays:
[1] = molecular target: HLA-B*07:02; assay: IEDB peptide-MHC binding, purified MHC/competitive/radioactivity; filed as Kd, often an IC50 or EC50 that approximates it; ≥ and ≤ were set here for values at or beyond the usual limits of such assays
[2] = molecular target: HLA-B*35:01; assay: as above
[3] = molecular target: HLA-B*51:01; assay: as above
[4] = molecular target: HLA-B*53:01; assay: as above
[5] = molecular target: HLA-B*54:01; assay: as above
[6] = molecular target: HLA-B*15:01; assay: as above
[7] = molecular target: HLA-A*68:02; assay: as above
[8] = molecular target: HLA-A*23:01; assay: as above
[9] = molecular target: HLA-A*26:01; assay: as above
[10] = molecular target: HLA-A*02:02; assay: as above
[11] = molecular target: HLA-A*02:03; assay: as above; settings: source organism: Vaccinia virus WR
[12] = molecular target: HLA-A*02:06; assay: as above
[13] = molecular target: HLA-A*24:02; assay: as above; settings: source organism: Dengue virus 2 Jamaica/1409/1983
[14] = molecular target: HLA-A*01:01; assay: as above; settings: source organism: Dengue virus 4 Philippines/H241/1956
[15] = molecular target: HLA-A*30:02; assay: as above
[16] = molecular target: HLA-A*24:03; assay: IEDB peptide-MHC binding, purified MHC/direct/fluorescence; filed as Kd, often an IC50 or EC50 that approximates it; ≥ and ≤ were set here for values at or beyond the usual limits of such assays
[17] = molecular target: HLA-A*03:01; assay: IEDB peptide-MHC binding, purified MHC/competitive/radioactivity; filed as Kd, often an IC50 or EC50 that approximates it; ≥ and ≤ were set here for values at or beyond the usual limits of such assays
[18] = molecular target: HLA-A*31:01; assay: as above
[19] = molecular target: HLA-A*33:01; assay: as above
[20] = molecular target: HLA-B*08:01; assay: as above
[21] = molecular target: HLA-B*51:01; assay: IEDB peptide-MHC binding, purified MHC/competitive/fluorescence; filed as Kd, often an IC50 or EC50 that approximates it; ≥ and ≤ were set here for values at or beyond the usual limits of such assays; settings: source organism: Yersinia pestis Nepal516
[22] = molecular target: HLA-A*11:01; assay: IEDB peptide-MHC binding, purified MHC/competitive/radioactivity; filed as Kd, often an IC50 or EC50 that approximates it; ≥ and ≤ were set here for values at or beyond the usual limits of such assays; settings: source organism: Vaccinia virus WR
[23] = molecular target: HLA-A*68:01; assay: as above; settings: source organism: Vaccinia virus WR
[24] = molecular target: HLA-B*15:01; assay: IEDB peptide-MHC binding, purified MHC/competitive/fluorescence; filed as Kd, often an IC50 or EC50 that approximates it; ≥ and ≤ were set here for values at or beyond the usual limits of such assays; settings: source organism: Kurkino virus
[25] = source organism: Triticum aestivum
[26] = source organism: Vaccinia virus WR
[27] = source organism: SARS coronavirus Tor2
[28] = source organism: Dengue virus 2 Jamaica/1409/1983
[29] = source organism: Mammarenavirus brazilense
[30] = source organism: Dengue virus 1 Brazil/97-11/1997
[31] = source organism: Lymphocytic choriomeningitis virus (strain Armstrong)
[32] = source organism: Dengue virus 3 Martinique/1243/1999
[33] = source organism: Mammarenavirus choriomeningitidis
[34] = source organism: Dengue virus 4 Philippines/H241/1956
[35] = source organism: Mammarenavirus lassaense

pKd [1, 25]: 5.84
pKd [2, 25]: ≤ 4.06
pKd [3, 25]: ≤ 4.06
pKd [4, 25]: ≤ 4.06
pKd [5, 25]: ≤ 4.06
Sequence: QPQQLPQF

Sequence: VSVNNVCHM
pKd ([6]; source organism: Vaccinia virus Copenhagen): 7.86

pKd [1, 25]: 5.26
pKd [2, 25]: 5.82
pKd [3, 25]: 5.94
pKd [4, 25]: 5.78
pKd [5, 25]: ≤ 4.27
Sequence: YPLGQGSF

Sequence: EPVVKDKIKL
pKd [1, 26]: ≤ 4.50
pKd [2, 26]: ≤ 4.16
pKd [3, 26]: ≤ 4.16
pKd [4, 26]: ≤ 4.27
pKd [5, 26]: ≤ 4.37

Sequence: RPLMESELV
pKd [1, 27]: 5.09
pKd [2, 27]: ≤ 4.61
pKd [3, 27]: 5.63
pKd [4, 27]: ≤ 4.37
pKd [5, 27]: ≤ 4.32

pKd [1, 25]: 6.02
pKd [2, 25]: 7.54
pKd [3, 25]: 4.84
pKd [4, 25]: 5.34
pKd [5, 25]: ≤ 4.33
Sequence: QPFLQPQLPY

Sequence: SASSMVNGV
pKd [7, 28]: 7.61

Sequence: NPIVLHNGM
pKd [1, 29]: 5.75
pKd [2, 29]: 6.36
pKd [3, 29]: ≤ 4.49
pKd [4, 29]: 4.98
pKd [5, 29]: ≤ 4.11

Sequence: MIIMDEAHF
pKd [6, 30]: 7.73

Sequence: MPEWANFKF
pKd [1, 31]: 6.11
pKd [2, 31]: 8.03
pKd [3, 31]: ≤ 4.55
pKd [4, 31]: 7.87
pKd [5, 31]: 5.86

Sequence: SPKFTTSLSL
pKd [1, 27]: 8.08
pKd [2, 27]: 5.10
pKd [3, 27]: 5.96
pKd [4, 27]: 5.89
pKd [5, 27]: ≤ 4.54

Sequence: LPYVGDTSMM
pKd [1, 26]: 6.08
pKd [2, 26]: 6.09
pKd [3, 26]: 5.52
pKd [4, 26]: 5.07
pKd [5, 26]: ≤ 4.16

Sequence: FAPSYSAEM
pKd [6, 26]: 6.34

Sequence: RTNAAMGAVF
pKd [8, 32]: 5.69
pKd [9, 32]: ≤ 4.24
pKd [6, 32]: 7.71

Sequence: DTVTYKCPHI
pKd [7, 32]: 7.05

Sequence: LPHIIDEVM
pKd [1, 33]: 6.81
pKd [2, 33]: 7.82
pKd [3, 33]: 5.03
pKd [4, 33]: 6.07
pKd [5, 33]: 5.05

Sequence: QLFKYVPSA
pKd [10, 26]: 7.91
pKd [11]: 8.11
pKd [12, 26]: 6.46
pKd [6, 26]: 6.42

Sequence: DPEKFNARMA
pKd [1, 26]: ≤ 4.27
pKd [2, 26]: ≤ 4.16
pKd [3, 26]: ≤ 4.39
pKd [4, 26]: ≤ 4.35
pKd [5, 26]: 6.00

Sequence: IPGDILSII
pKd [1, 26]: 7.36
pKd [2, 26]: 6.58
pKd [3, 26]: 9.34
pKd [4, 26]: 7.56
pKd [5, 26]: 6.43

Sequence: MVRILIGFLV
pKd [7, 34]: 6.40

Sequence: FMALVAFLRF
pKd [8, 28]: 5.60
pKd [13]: ≤ 4.55
pKd [6, 28]: 6.64
pKd [2, 28]: 7.16
pKd [4, 28]: 6.00

Sequence: YTPEGIIPTL
pKd [12, 34]: 7.67
pKd [7, 34]: 6.58

pKd ([12]; source organism: Homo sapiens): ≤ 4.37
pKd ([7]; source organism: Homo sapiens): ≤ 4.22
Sequence: QLKGQGKSRL

Sequence: MVMTTTANWL
pKd [7, 34]: 8.19

Sequence: ALMVIGMAM
pKd [6, 34]: 8.58

Sequence: ETNMITLLV
pKd [14]: 6.68
pKd [9, 34]: 6.47
pKd [7, 34]: 8.14

Sequence: MSIPATLFV
pKd [12, 30]: 7.92
pKd [7, 30]: 9.20

Sequence: ESPARLASAI
pKd [9, 34]: 5.35
pKd [7, 34]: 6.30

Sequence: LTYQNKVVRV
pKd [7, 28]: 7.55

Sequence: EIYTYFSHC
pKd [6, 26]: 6.03

Sequence: STANIFRGSY
pKd [14]: 5.94
pKd [9, 34]: 7.63
pKd [15, 34]: 8.68
pKd [6, 34]: 8.31

Sequence: TSNHGVTATI
pKd ([7]; source organism: Dengue virus 4 Thailand/0348/1991): 6.89

Sequence: MPDCGMSVL
pKd [1, 35]: 7.00
pKd [2, 35]: 8.33
pKd [3, 35]: 5.55
pKd [4, 35]: 7.08
pKd [5, 35]: 5.57

Sequence: EVEDYGFGV
pKd [7, 28]: 8.15

Sequence: AFMRFDDQF
pKd ([16]; source organism: Listeria monocytogenes): ≥ 9.00

Sequence: HPIMYYTKF
pKd [1, 31]: 6.87
pKd [2, 31]: 7.75
pKd [3, 31]: 5.80
pKd [4, 31]: 7.84
pKd [5, 31]: 5.42

Sequence: MLLNRFTTR
pKd [17, 34]: 7.92
pKd [18, 34]: 8.82
pKd [19, 34]: 7.83
pKd [20, 34]: 5.61

Sequence: SSALLWMASV
pKd [7, 30]: 7.33

Sequence: LTASLVMLLV
pKd ([7]; source organism: Dengue virus 4 Dominica/814669/1981): 7.52

Sequence: VYRIMTRGL
pKd ([16]; source organism: West Nile virus): 6.24

pKd ([12]; source organism: Homo sapiens): 6.19
pKd ([7]; source organism: Homo sapiens): 8.92
Sequence: SLPLPNFSSL

Sequence: LSRVFFCVY
pKd [6, 26]: 8.54

Sequence: SMISRHCCI
pKd [20, 26]: 8.90
pKd [6, 26]: 7.09

Sequence: ALLLLVAHY
pKd [15, 28]: ≤ 4.11
pKd [6, 28]: 7.30

Sequence: ALITVSGLY
pKd [14]: 5.09
pKd [9, 34]: 6.25
pKd [15, 34]: 9.17
pKd [6, 34]: 8.65

Sequence: YVVIGLLFMI
pKd [12, 30]: 6.85
pKd [7, 30]: 6.99

Sequence: LPWLIFIQI
pKd [21]: 5.77

Sequence: RPEMQEFEY
pKd [1, 26]: ≤ 4.16
pKd [2, 26]: 8.09
pKd [3, 26]: ≤ 4.11
pKd [4, 26]: 7.78
pKd [5, 26]: ≤ 4.11

Sequence: QPGLLSYVI
pKd [1, 29]: 4.91
pKd [2, 29]: 5.96
pKd [3, 29]: 5.65
pKd [4, 29]: 6.51
pKd [5, 29]: 5.30

Sequence: LPDALLFTL
pKd [1, 29]: 6.70
pKd [2, 29]: 7.88
pKd [3, 29]: 5.48
pKd [4, 29]: 7.84
pKd [5, 29]: 5.54

pKd [1, 25]: 5.44
pKd [2, 25]: ≤ 4.06
pKd [3, 25]: 5.22
pKd [4, 25]: ≤ 4.06
pKd [5, 25]: 4.96
Sequence: NPQAQGSV

Sequence: TSAGVNMCTL
pKd [7, 30]: 8.16

Sequence: LLHCVTESY
pKd [17, 26]: 5.41
pKd [22]: 5.08
pKd [18, 26]: 4.90
pKd [19, 26]: ≤ 4.58
pKd [23]: 4.91
pKd [6, 26]: 8.98

Sequence: FQTLTSCTF
pKd [24]: 7.45

Sequence: DPQNAAVNV
pKd [1, 26]: ≤ 4.11
pKd [2, 26]: ≤ 4.11
pKd [3, 26]: 5.90
pKd [4, 26]: ≤ 4.43
pKd [5, 26]: ≤ 4.49

Sequence: CPFLFLMLL
pKd [1, 33]: ≤ 4.11
pKd [2, 33]: 5.85
pKd [3, 33]: ≤ 4.34
pKd [4, 33]: 5.68
pKd [5, 33]: 6.85

Sequence: MSTYGWNIV
pKd [7, 32]: 7.40

Sequence: PPALNCYWPL
pKd [1, 27]: 4.90
pKd [2, 27]: ≤ 4.24
pKd [3, 27]: 5.92
pKd [4, 27]: ≤ 4.16
pKd [5, 27]: ≤ 4.42

pKd ([10]; source organism: Homo sapiens): 7.56
pKd ([7]; source organism: Homo sapiens): ≤ 4.55
Sequence: KLREYEAAL

Sequence: EPLSPDTCLL
pKd [1, 26]: ≤ 4.22
pKd [2, 26]: 6.55
pKd [3, 26]: ≤ 4.16
pKd [4, 26]: 6.54
pKd [5, 26]: ≤ 4.21

Sequence: NTNKHMLEF
pKd [6, 26]: 7.93
